Values of other authors in paper PMC4698235.

How the values were obtained:
insulin (Homo sapiens) = insulin (Homo sapiens) (UniProt P01308)
IDE (Homo sapiens) = IDE (Homo sapiens) (UniProt P14735)

Chain of UniProt P01308 (P01308 90-110): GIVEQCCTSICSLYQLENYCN

Kd (insulin (Homo sapiens)): 10 nM
Kd (IDE (Homo sapiens)): 10 nM
Substance: IDE (from UniProt P14735)
